Residue numbers refer to the chain shown, from its start.
Columns and labels:
Assay in all cases: cleavage_in_vitro
[1] = system: T1, BsaWI-WT (Bacillus stearothermophilus); conditions: NEB4, relative activity 100%
T1 sequence: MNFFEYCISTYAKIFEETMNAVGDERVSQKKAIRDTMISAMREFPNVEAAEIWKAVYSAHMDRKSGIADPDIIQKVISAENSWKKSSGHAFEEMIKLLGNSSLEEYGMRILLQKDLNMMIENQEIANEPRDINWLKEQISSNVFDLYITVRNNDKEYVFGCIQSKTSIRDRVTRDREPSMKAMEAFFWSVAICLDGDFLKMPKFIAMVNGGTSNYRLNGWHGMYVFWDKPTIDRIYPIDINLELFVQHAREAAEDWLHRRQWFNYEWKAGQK

[2] = system: T2, ApoI-WT (Arthrobacter protophormiae); conditions: NEB4, relative activity 50%
T2 sequence: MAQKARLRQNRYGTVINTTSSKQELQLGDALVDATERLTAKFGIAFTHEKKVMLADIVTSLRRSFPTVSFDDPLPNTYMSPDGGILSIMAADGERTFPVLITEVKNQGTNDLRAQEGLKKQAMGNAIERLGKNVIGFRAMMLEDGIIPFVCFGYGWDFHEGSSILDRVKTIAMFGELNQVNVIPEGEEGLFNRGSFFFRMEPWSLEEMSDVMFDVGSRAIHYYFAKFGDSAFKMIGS

[3] = system: T3, NsiI-WT (Neisseria sicca); conditions: NEB4, relative activity 12.5%
T3 sequence: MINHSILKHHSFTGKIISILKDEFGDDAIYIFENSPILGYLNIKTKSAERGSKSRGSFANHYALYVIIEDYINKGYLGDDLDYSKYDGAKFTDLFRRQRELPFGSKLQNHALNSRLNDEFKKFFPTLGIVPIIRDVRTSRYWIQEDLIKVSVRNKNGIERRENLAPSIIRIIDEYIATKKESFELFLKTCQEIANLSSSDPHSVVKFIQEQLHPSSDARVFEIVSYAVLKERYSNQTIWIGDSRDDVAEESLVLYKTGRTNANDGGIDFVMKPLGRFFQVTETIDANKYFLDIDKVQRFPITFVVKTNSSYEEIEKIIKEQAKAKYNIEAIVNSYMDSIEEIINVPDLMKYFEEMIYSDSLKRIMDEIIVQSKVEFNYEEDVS

[4] = target: T4, SmaI-HF F60L/S61R (Serratia marcescens) (UniProt P14229); conditions: NEB4, relative activity 100%
T4 sequence: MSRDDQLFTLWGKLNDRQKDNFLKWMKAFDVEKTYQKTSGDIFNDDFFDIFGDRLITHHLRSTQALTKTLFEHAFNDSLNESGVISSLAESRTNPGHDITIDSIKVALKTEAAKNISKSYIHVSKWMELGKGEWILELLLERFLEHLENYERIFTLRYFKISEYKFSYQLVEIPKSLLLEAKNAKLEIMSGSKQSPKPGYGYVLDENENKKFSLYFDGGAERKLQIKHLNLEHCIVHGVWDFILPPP

[5] = target: T5, BglII-WT (Bacillus globigii) (UniProt Q45488); conditions: NEB4, relative activity 6.3%
T5 sequence: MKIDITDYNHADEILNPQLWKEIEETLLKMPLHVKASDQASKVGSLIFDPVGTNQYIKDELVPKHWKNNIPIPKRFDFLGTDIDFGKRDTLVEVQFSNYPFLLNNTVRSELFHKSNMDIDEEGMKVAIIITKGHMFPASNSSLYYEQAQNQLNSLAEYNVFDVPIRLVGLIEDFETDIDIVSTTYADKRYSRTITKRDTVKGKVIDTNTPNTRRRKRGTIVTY

[6] = system: T6, NsiI-HF F376A (Neisseria sicca); conditions: NEB4, relative activity 100%
T6 sequence: T3 sequence with F376A

[7] = system: T7, PvuI-HF P154A (Proteus vulgaris); conditions: NEB4, relative activity 100%
T7 sequence: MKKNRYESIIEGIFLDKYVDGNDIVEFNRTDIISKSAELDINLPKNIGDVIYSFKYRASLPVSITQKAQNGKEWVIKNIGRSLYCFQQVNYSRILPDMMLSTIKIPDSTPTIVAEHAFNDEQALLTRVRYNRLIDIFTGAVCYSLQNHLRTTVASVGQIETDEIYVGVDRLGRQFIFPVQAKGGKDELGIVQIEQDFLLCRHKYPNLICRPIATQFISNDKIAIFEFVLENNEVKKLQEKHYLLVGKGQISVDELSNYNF

Substance pXba plasmid has an activity (fidelity index) [1] of 16, an activity (fidelity index) [2] of 32 and an activity (fidelity index) [3] of 32. For the same substance, the activity (fidelity index) [4] was over 256000, the activity (fidelity index) [5] was 16 and the activity (fidelity index) [6] was over 8000. The activity (fidelity index) [7] was over 16000.
